According to the RNAGym collection of RNA variant scans (doi:10.7554/elife.80360):

B1: Hairpin Ribozyme (parent)
chain: GUCCUCUUUCACGUGCGCGUGAAAGAGAGAAGUGAACCAGAGAAACACACGUUGUGGUAUAUUACCUGGUA

Variants of: B1
Assay: self-cleavage, relative activity (ratio to wild type); higher = more cleavage; co-transcriptional

Variant	self-cleavage
A11C U53A	0.919
A11C U58G	0.696
A11C U60C	1.27
A11C U62G	0.199
A11C U63A	0.201
A11C U67C	0.225
A11C U70C	1.23
A11G	0.883
A11G A23G	0.83
A11G A26C	0.624
A11G A28C	0.446
A11G A30U	0.118
A11G A35C	0.996
A11G A35U	0.764
A11G A36G	0.972
A11G A39C	0.45
A11G A41C	1.06
A11G A44C	0.203
A11G A44G	0.0822
A11G A45U	0.159
A11G A47C	0.481
A11G A59U	0.199
A11G A71C	1.35
A11G A71U	0.749

Variant	self-cleavage
A11G C12A	0.735
A11G C12U	0.778
A11G C16G	0.592
A11G C18A	0.795
A11G C18U	0.939
A11G C46U	0.203
A11G C48A	0.0849
A11G C48G	0.109
A11G C50A	0.196
A11G C50G	0.346
A11G C65A	0.759
A11G C65U	0.227
A11G C66A	0.29
A11G G19A	0.88
A11G G21A	0.764
A11G G21U	0.72
A11G G25C	0.587
A11G G25U	0.569
A11G G29U	0.142
A11G G32A	0.0907
A11G G32U	0.104
A11G G34A	1.18
A11G G51C	0.784
A11G G54A	0.487

Variant	self-cleavage
A11G G54U	0.56
A11G G57C	0.169
A11G G68C	0.221
A11G G68U	0.143
A11G G69A	0.405
A11G U14G	0.846
A11G U20A	0.637
A11G U33C	0.0978
A11G U52A	0.857
A11G U53A	0.945
A11G U53G	0.755
A11G U55A	0.191
A11G U58G	0.802
A11G U60A	0.732
A11G U60C	1
A11G U62C	0.146
A11G U62G	0.332
A11G U63C	0.204
A11G U63G	0.296
A11G U67A	0.243
A11G U67G	0.354
A11G U70G	0.846
A11U	0.831
A11U A23C	0.652

Variant	self-cleavage
A11U A23G	0.402
A11U A24U	0.638
A11U A26C	0.305
A11U A28C	0.53
A11U A30C	0.236
A11U A35U	0.717
A11U A36C	0.619
A11U A36U	0.533
A11U A43C	0.139
A11U A43G	0.135
A11U A45C	0.241
A11U A45G	0
A11U A47C	0.232
A11U A47G	0.247
A11U A61C	0.137
A11U A71C	1.17
A11U C12A	0.763
A11U C12U	0.694
A11U C18A	0.826
A11U C37G	0.369
A11U C37U	0.524
A11U C38A	0.2
A11U C48A	0.215
A11U C48U	0.154

Variant	self-cleavage
A11U C50A	0.153
A11U C65G	0.308
A11U C65U	0.25
A11U C66U	0.318
A11U G15U	0.895
A11U G17A	0.751
A11U G17U	0.562
A11U G19U	0.815
A11U G25A	0.402
A11U G25U	0.568
A11U G27U	0.394
A11U G29A	0.137
A11U G32U	0.0846
A11U G40U	0.154
A11U G54A	0.538
A11U G57A	0.15
A11U G57U	0.337
A11U G68A	0.316
A11U G69C	0.229
A11U G69U	0.26
A11U U14A	0.796
A11U U58C	0.822
A11U U60C	1.18
A11U U62G	0.0971

Variant	self-cleavage
A11U U63G	0.175
A11U U67A	0.117
A11U U67C	0.223
A11U U70A	0.914
A11U U70G	0.656
C12A A22U	0.737
C12A A23G	0.677
C12A A23U	0.671
C12A A26G	0.766
C12A A26U	0.522
C12A A30C	0.159
C12A A31C	0.117
C12A A31G	0.468
C12A A35C	0.978
C12A A35G	0.914
C12A A36U	0.435
C12A A39G	0.285
C12A A39U	0.425
C12A A41C	1.05
C12A A41U	1.13
C12A A43U	0.131
C12A A44C	0.0806
C12A A44G	0.114
C12A A45G	0.177

Variant	self-cleavage
C12A A45U	0.132
C12A A49C	0.0858
C12A A59G	0.226
C12A A61C	0.239
C12A A61U	0.169
C12A A71C	1.26
C12A A71U	0.701
C12A C37U	0.578
C12A C38G	0.187
C12A C38U	0.482
C12A C46A	0.202
C12A C46U	0.119
C12A C50A	0.231
C12A C50G	0.389
C12A C65G	0.282
C12A G13A	0.635
C12A G13C	0.927
C12A G17A	0.746
C12A G17C	0.978
C12A G17U	0.707
C12A G21A	0.767
C12A G25C	0.346
C12A G27C	0.0872
